Test results: patent US20070244048A1 (published 2007)
No end group written: not given here.

Columns and labels:
human NMUR2 [1] = biological target: T1, human NMUR2 (human, UniProt Q9GZQ4 1-415); assay: cell-based or functional assay
human NMUR1 [2] = biological target: T2, human NMUR1 (human, UniProt Q9HB89 1-426); assay: cell-based or functional assay
T2 sequence (looked up): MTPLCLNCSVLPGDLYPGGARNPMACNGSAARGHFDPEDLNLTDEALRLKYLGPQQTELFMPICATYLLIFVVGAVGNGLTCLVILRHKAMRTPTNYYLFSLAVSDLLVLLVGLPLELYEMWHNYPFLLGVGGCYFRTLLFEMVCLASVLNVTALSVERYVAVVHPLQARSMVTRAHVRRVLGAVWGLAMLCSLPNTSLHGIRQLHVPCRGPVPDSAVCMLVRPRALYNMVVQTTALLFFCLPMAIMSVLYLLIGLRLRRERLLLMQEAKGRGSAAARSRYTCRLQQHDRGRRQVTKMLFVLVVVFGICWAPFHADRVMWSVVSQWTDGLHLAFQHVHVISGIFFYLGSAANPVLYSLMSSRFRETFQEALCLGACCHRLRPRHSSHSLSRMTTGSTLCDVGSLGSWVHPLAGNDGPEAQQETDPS

mouse NMUR1-ATG [3] = biological target: T3, mouse NMUR1-ATG (mouse, UniProt O55040 1-428); assay: cell-based or functional assay
T3 sequence (looked up): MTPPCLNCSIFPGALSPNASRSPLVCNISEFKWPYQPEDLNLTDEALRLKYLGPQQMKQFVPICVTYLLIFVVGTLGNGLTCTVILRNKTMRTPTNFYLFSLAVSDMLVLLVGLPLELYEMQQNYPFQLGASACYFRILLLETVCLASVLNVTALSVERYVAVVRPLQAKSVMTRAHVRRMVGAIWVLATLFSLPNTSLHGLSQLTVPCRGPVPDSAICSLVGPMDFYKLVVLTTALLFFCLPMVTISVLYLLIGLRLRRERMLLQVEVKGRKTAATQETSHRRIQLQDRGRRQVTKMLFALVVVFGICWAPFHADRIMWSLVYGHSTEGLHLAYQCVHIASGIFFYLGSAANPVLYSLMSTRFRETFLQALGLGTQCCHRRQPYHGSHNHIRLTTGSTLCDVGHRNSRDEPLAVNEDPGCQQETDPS

human NMUR2 [4] = biological target: T1, human NMUR2; assay: cell-based or functional assay; remark: listed apart in the source
rat NMUR1-ATG = biological target: T4, rat NMUR1-ATG (rat, UniProt Q9JJI5 1-425); assay: cell-based or functional assay
T4 sequence (looked up): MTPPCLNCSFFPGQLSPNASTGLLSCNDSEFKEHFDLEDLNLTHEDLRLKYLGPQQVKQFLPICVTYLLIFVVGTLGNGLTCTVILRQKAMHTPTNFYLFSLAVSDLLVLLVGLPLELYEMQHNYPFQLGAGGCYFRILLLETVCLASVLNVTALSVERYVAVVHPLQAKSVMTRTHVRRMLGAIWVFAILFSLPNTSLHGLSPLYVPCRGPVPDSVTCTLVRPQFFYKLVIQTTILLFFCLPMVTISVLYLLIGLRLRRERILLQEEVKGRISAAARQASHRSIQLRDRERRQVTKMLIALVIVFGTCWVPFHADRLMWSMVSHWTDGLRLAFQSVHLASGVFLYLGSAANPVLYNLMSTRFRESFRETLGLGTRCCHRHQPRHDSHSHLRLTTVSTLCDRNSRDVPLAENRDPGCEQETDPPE

rat NMUR1-TTG = biological target: T5, rat NMUR1-TTG (rat, UniProt Q9JJI5 1-425); assay: cell-based or functional assay
T5 sequence (looked up): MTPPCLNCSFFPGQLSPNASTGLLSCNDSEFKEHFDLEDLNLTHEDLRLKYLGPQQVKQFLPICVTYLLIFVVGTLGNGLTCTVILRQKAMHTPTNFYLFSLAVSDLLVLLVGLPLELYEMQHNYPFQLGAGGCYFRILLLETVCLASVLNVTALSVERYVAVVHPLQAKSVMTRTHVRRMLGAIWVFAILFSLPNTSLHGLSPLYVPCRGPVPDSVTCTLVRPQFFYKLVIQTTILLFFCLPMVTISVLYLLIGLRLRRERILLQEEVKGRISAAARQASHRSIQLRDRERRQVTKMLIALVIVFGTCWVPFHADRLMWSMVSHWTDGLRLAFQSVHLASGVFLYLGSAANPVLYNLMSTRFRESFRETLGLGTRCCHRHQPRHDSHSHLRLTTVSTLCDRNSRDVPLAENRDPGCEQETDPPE

human NMUR1 [5] = biological target: T2, human NMUR1; assay: cell-based or functional assay; remark: listed apart in the source
mouse NMUR2 = mouse NMUR2 (mouse, UniProt Q8BZ39 1-395); assay: cell-based or functional assay
mouse NMUR1-CTG = biological target: T6, mouse NMUR1-CTG (mouse, UniProt O55040 1-428); assay: cell-based or functional assay
T6 sequence (looked up): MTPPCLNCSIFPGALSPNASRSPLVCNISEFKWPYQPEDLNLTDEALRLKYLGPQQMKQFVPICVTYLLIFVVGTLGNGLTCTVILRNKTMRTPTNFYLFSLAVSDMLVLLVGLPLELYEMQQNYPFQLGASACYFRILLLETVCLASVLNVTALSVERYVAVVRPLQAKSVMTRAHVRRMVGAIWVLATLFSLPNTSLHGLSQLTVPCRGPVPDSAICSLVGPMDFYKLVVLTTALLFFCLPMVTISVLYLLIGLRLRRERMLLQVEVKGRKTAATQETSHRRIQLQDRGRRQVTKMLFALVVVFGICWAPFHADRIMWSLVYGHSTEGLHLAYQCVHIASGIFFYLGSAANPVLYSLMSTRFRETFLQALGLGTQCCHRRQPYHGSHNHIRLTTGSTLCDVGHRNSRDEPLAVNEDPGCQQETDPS

rat NMUR2 = rat NMUR2 (rat, UniProt Q9ESQ4 1-395); assay: cell-based or functional assay
human NMUR2 [6] = biological target: T1, human NMUR2; assay: 125I-hNMU-25 displacement, HEK cell membranes
Procedure, shortened: (§1)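 HEK cell membranes (2-5 μg) incubated with […] ¹²⁵I-hNMU-25 and peptides for 80 min at room temperature in TrisCl pH 7.4 buffer with MgCl₂, EDTA, bacitracin and phosphoramidon. Bound ligand collected by filtration and scintillation counting; nonspecific binding with 1 μM hNMU-25. IC₅₀ from curve fitting.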

human NMUR1 [7] = biological target: T2, human NMUR1; assay: 125I-hNMU-25 displacement, HEK cell membranes
Procedure, shortened: as §1

mouse NMUR1-ATG [8] = biological target: T3, mouse NMUR1-ATG; assay: 125I-hNMU-25 displacement, cell membranes
human NMUR1 [9] = biological target: T2, human NMUR1; assay: 125I-hNMU-25 displacement, cell membranes

T1 sequence (Q9GZQ4 whole entry): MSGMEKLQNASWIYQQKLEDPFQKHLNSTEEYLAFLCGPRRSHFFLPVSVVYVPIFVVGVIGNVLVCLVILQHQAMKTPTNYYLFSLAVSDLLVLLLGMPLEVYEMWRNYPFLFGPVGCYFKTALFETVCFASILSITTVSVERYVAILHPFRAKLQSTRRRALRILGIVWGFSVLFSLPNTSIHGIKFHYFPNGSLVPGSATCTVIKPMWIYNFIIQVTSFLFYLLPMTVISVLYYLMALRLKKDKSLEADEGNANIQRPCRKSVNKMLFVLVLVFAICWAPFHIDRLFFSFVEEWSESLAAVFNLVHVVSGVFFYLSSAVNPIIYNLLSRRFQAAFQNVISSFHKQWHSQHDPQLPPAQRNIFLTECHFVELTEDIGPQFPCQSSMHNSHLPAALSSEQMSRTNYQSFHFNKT
mouse NMUR2, sequence (Q8BZ39 whole entry): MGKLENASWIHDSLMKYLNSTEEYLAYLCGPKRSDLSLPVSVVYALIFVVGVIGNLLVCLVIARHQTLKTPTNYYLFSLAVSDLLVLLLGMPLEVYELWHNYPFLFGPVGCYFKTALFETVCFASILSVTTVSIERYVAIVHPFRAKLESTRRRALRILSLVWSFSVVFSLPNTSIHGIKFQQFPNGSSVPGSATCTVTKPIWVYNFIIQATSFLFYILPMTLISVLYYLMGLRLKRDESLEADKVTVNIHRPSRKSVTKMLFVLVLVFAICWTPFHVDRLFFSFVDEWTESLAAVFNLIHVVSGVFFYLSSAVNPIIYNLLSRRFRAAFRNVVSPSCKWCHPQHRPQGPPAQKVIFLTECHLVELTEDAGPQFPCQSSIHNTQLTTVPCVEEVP
rat NMUR2, sequence (Q9ESQ4 whole entry): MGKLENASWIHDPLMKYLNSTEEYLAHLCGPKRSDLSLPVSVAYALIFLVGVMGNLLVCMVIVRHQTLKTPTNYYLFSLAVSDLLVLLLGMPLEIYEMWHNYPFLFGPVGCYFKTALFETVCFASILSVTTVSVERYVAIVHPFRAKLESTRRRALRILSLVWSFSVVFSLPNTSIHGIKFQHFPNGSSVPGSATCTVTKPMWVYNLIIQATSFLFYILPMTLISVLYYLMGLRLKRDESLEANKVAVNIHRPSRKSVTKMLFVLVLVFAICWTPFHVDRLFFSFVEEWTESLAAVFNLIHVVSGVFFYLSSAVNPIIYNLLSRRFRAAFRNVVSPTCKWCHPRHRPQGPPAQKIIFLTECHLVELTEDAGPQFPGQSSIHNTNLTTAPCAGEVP

Binder: FRVDEEFQSPFASQSRGYFLFRPRN-NH2 (also called hNMU-25; native hNMU) [human NMU-25]
- % activity (human NMUR2 [1]): 100%
- EC50 (human NMUR2 [1]): 1.5 nM
- % activity (human NMUR1 [2]): 100%
- EC50 (human NMUR1 [2]): 5.5 nM
- IC50 (nM), functional (mouse NMUR1-ATG [3]): 0.9 nM
- IC50 (nM), functional (human NMUR2 [4]): 0.8 nM
- IC50 (nM), functional (rat NMUR1-ATG): 1.3 nM
- IC50 (nM), functional (rat NMUR1-TTG): 1 nM
- IC50 (nM), functional (human NMUR1 [5]): 0.2 nM
- IC50 (nM), functional (mouse NMUR2): 0.2 nM
- IC50 (nM), functional (mouse NMUR1-CTG): 2.9 nM
- IC50 (nM), functional (rat NMUR2): 1.6 nM
- % activity (binding) (human NMUR2 [6]): 100%
- IC50 (human NMUR2 [6]): 0.19 nM
- % activity (binding) (human NMUR1 [7]): 100%
- IC50 (human NMUR1 [7]): 0.47 nM
- IC50 (mouse NMUR1-ATG [8]): 0.4 nM
- IC50 (human NMUR1 [9]): 0.14 nM
